Source: publication PMC8750153

Molecular target: PpPex11 H2 WT peptide (Pichia pastoris)
Test: pull-down; biotinylated peptides on streptavidin affinity gel as bait; soluble lysate fraction of His6-tagged GFP-Pex11s as prey, 1 h at room temperature; 50 mM Tris pH 8.0, 50 mM NaCl, 5 mM EDTA; anti-GFP immunoblot

- fold binding against the H3 peptide: 2.5 fold
Substance: His6-GFP-Pex11 (natural protein)
